Here are results for seven molecules from publication PMC9367764, “Functional Versatility of the Human 2-Oxoadipate Dehydrogenase in the L-Lysine Degradation Pathway toward Its Non-Cognate Substrate 2-Oxopimelic Acid” (International Journal of Molecular Sciences, 2022).

The Kd is the free concentration of one partner at which half of the binding sites on the other are occupied at equilibrium, for simple one-to-one binding. By Km is commonly meant the substrate concentration at which the rate is half of its maximum.

Series [1] addresses human dihydrolipoamide dehydrogenase (E3) (human) (UniProt P09622). Description: pull-down; co-purification of E1a or Arg715Cys E1a with E2o and E3 (assembly into OADHc) on immobilized metal affinity chromatography; relative amounts from band intensities in PAGE; which component was held by the resin is not stated.
Series [2] addresses human dihydrolipoamide succinyltransferase (E2o) (human) (UniProt P36957). Described as above.
Series [3] addresses E2o di-domain (linker and part of core domain) (Homo sapiens) (UniProt P36957). In words: fluorescence. As to conditions: cited from earlier work.
Series [4] concerns the target E2o 1-173 di-domain, labelled with N-(1-pyrene) maleimide (human). In words: other fluorescence titration; pyrene-labelled E2o 1-173 di-domain titrated by Arg715Cys E1a; 25 °C; 100 mM HEPES (pH 7.5), 0.15 M NaCl, 1% glycerol.
Substrate in series [5]: O=C(O)CCCC(=O)C(=O)O
In words: E1a-specific DCPIP reduction assay (Km, kcat). In kind it is biochemical, Homo sapiens. As to conditions: ThDP, Mg2+ active center; decarboxylated to the E1a-ThDP-enamine intermediate.

Substrate in series [6]: O=C(O)CCCCC(=O)C(=O)O
Description: E1a-specific DCPIP reduction assay (Km, kcat). In kind it is biochemical, Homo sapiens. As to conditions: ThDP, Mg2+ active center; decarboxylated to the E1a-ThDP-enamine intermediate.

Substrate in series [7]: O=C(O)CCCC(=O)C(=O)O
In words: E1a-specific DCPIP reduction assay (Km). In kind it is biochemical, Homo sapiens. As to conditions: ThDP, Mg2+.

Chain of human dihydrolipoamide succinyltransferase (E2o) (human) (P36957 68-453): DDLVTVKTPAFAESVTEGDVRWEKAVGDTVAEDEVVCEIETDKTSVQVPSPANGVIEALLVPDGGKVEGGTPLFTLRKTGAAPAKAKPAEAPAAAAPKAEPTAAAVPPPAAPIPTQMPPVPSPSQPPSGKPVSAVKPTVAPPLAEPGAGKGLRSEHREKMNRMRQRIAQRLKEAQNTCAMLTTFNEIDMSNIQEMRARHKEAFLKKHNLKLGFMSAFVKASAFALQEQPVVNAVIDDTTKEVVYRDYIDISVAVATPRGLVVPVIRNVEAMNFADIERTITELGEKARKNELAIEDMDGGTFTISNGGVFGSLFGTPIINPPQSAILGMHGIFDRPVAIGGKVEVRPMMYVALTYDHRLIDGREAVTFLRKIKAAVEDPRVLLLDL
Chain of human dihydrolipoamide dehydrogenase (E3) (human) (P09622 36-509): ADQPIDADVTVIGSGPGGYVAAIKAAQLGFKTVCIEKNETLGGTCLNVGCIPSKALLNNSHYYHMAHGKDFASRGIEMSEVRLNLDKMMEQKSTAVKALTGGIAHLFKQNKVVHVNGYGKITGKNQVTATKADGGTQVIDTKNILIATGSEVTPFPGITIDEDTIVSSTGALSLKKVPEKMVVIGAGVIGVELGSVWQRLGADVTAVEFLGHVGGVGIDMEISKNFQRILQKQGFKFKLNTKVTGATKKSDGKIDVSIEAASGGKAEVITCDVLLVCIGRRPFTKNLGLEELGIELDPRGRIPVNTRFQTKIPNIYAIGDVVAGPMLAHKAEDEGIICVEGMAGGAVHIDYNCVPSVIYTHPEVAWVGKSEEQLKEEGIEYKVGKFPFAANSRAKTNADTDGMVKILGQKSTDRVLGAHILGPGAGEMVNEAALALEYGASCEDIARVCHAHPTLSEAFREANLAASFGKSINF
Chain of E2o di-domain (linker and part of core domain) (Homo sapiens) (P36957 68-219): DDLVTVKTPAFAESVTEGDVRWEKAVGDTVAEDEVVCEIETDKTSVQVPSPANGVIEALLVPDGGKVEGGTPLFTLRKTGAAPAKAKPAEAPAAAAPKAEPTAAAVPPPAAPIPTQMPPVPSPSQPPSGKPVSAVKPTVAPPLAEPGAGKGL

Regarding “human 2-oxoadipate dehydrogenase (E1a), wild type (enzyme)”, the relative amount of E1a among the components co-purified as OADHc (band intensity in PAGE) in series [1] and in series [2] was 46% in each case.
As to “E1a (2-oxoadipate dehydrogenase) (from UniProt Q96HY7)”, the Kd in series [3] was 1120 nM.
“Arg715Cys E1a variant of human 2-oxoadipate dehydrogenase (enzyme)” displayed a Kd in series [4] of 1130 nM. The relative amount of E1a among the components co-purified as OADHc (band intensity in PAGE) in series [1] and in series [2] was 7.7% throughout.

B1: 2-oxoadipate dehydrogenase (E1a) (Homo sapiens) (protein)
chain: GYQTERGVYGYRPRKPESREPQGALERPPVDHGLARLVTVYCEHGHKAAKINPLFTGQALLENVPEIQALVQTLQGPFHTAGLLNMGKEEASLEEVLVYLNQIYCGQISIETSQLQSQDEKDWFAKRFEELQKETFTTEERKHLSKLMLESQEFDHFLATKFSTVKRYGGEGAESMMGFFHELLKMSAYSGITDVIIGMPHRGRLNLLTGLLQFPPELMFRKMRGLSEFPENFSATGDVLSHLTSSVDLYFGAHHPLHVTMLPNPSHLEAVNPVAVGKTRGRQQSRQDGDYSPDNSAQPGDRVICLQVHGDASFCGQGIVPETFTLSNLPHFRIGGSVHLIVNNQLGYTTPAERGRSSLYCSDIGKLVGCAIIHVNGDSPEEVVRATRLAFEYQRQFRKDVIIDLLCYRQWGHNELDEPFYTNPIMYKIIRARKSIPDTYAEHLIAGGLMTQEEVSEIKSSYYAKLNDHLNNMAHYRPPALNLQAHWQGLAQPEAQITTWSTGVPLDLLRFVGMKSVEVPRELQMHSHLLKTHVQSRMEKMMDGIKLDWATAEALALGSLLAQGFNVRLSGQDVGRGTFSQRHAIVVCQETDDTYIPLNHMDPNQKGFLEVSNSPLSEEAVLGFEYGMSIESPKLLPLWEAQFGDFFNGAQIIFDTFISGGEAKWLLQSGIVILLPHGYDGAGPDHSSCRIERFLQMCDSAEEGVDGDTVNMFVVHPTTPAQYFHLLRRQMVRNFRKPLIVASPKMLLRLPAAVSTLQEMAPGTTFNPVIGDSSVDPKKVKTLVFCSGKHFYSLVKQRESLGAKKHDFAIIRVEELCPFPLDSLQQEMSKYKHVKDHIWSQEEPQNMGPWSFVSPRFEKQLACKLRLVGRPPLPVPAVGIGTVHLHQHEDILAKTFA
notes: C-terminally His6-tagged E1a
For B1, the values for the Km in series [5] and in series [6] were 4.9 µM and 37 µM, respectively.

B2: 2-oxoadipate dehydrogenase (E1a) (Homo sapiens; P773L) (protein)
chain: GYQTERGVYGYRPRKPESREPQGALERPPVDHGLARLVTVYCEHGHKAAKINPLFTGQALLENVPEIQALVQTLQGPFHTAGLLNMGKEEASLEEVLVYLNQIYCGQISIETSQLQSQDEKDWFAKRFEELQKETFTTEERKHLSKLMLESQEFDHFLATKFSTVKRYGGEGAESMMGFFHELLKMSAYSGITDVIIGMPHRGRLNLLTGLLQFPPELMFRKMRGLSEFPENFSATGDVLSHLTSSVDLYFGAHHPLHVTMLPNPSHLEAVNPVAVGKTRGRQQSRQDGDYSPDNSAQPGDRVICLQVHGDASFCGQGIVPETFTLSNLPHFRIGGSVHLIVNNQLGYTTPAERGRSSLYCSDIGKLVGCAIIHVNGDSPEEVVRATRLAFEYQRQFRKDVIIDLLCYRQWGHNELDEPFYTNPIMYKIIRARKSIPDTYAEHLIAGGLMTQEEVSEIKSSYYAKLNDHLNNMAHYRPPALNLQAHWQGLAQPEAQITTWSTGVPLDLLRFVGMKSVEVPRELQMHSHLLKTHVQSRMEKMMDGIKLDWATAEALALGSLLAQGFNVRLSGQDVGRGTFSQRHAIVVCQETDDTYIPLNHMDPNQKGFLEVSNSPLSEEAVLGFEYGMSIESPKLLPLWEAQFGDFFNGAQIIFDTFISGGEAKWLLQSGIVILLPHGYDGAGPDHSSCRIERFLQMCDSAEEGVDGDTVNMFVVHPTTPAQYFHLLRRQMVRNFRKPLIVASPKMLLRLLAAVSTLQEMAPGTTFNPVIGDSSVDPKKVKTLVFCSGKHFYSLVKQRESLGAKKHDFAIIRVEELCPFPLDSLQQEMSKYKHVKDHIWSQEEPQNMGPWSFVSPRFEKQLACKLRLVGRPPLPVPAVGIGTVHLHQHEDILAKTFA
As to B2, the Km in series [7] came to 6 µM.

B3: 2-oxoadipate dehydrogenase (E1a) (Homo sapiens; R455Q) (protein)
chain: GYQTERGVYGYRPRKPESREPQGALERPPVDHGLARLVTVYCEHGHKAAKINPLFTGQALLENVPEIQALVQTLQGPFHTAGLLNMGKEEASLEEVLVYLNQIYCGQISIETSQLQSQDEKDWFAKRFEELQKETFTTEERKHLSKLMLESQEFDHFLATKFSTVKRYGGEGAESMMGFFHELLKMSAYSGITDVIIGMPHRGRLNLLTGLLQFPPELMFRKMRGLSEFPENFSATGDVLSHLTSSVDLYFGAHHPLHVTMLPNPSHLEAVNPVAVGKTRGRQQSRQDGDYSPDNSAQPGDRVICLQVHGDASFCGQGIVPETFTLSNLPHFRIGGSVHLIVNNQLGYTTPAERGRSSLYCSDIGKLVGCAIIHVNGDSPEEVVRATRLAFEYQRQFRKDVIIDLLCYRQWGHNELDEPFYTNPIMYKIIRAQKSIPDTYAEHLIAGGLMTQEEVSEIKSSYYAKLNDHLNNMAHYRPPALNLQAHWQGLAQPEAQITTWSTGVPLDLLRFVGMKSVEVPRELQMHSHLLKTHVQSRMEKMMDGIKLDWATAEALALGSLLAQGFNVRLSGQDVGRGTFSQRHAIVVCQETDDTYIPLNHMDPNQKGFLEVSNSPLSEEAVLGFEYGMSIESPKLLPLWEAQFGDFFNGAQIIFDTFISGGEAKWLLQSGIVILLPHGYDGAGPDHSSCRIERFLQMCDSAEEGVDGDTVNMFVVHPTTPAQYFHLLRRQMVRNFRKPLIVASPKMLLRLPAAVSTLQEMAPGTTFNPVIGDSSVDPKKVKTLVFCSGKHFYSLVKQRESLGAKKHDFAIIRVEELCPFPLDSLQQEMSKYKHVKDHIWSQEEPQNMGPWSFVSPRFEKQLACKLRLVGRPPLPVPAVGIGTVHLHQHEDILAKTFA
notes: C-terminally His6-tagged E1a variant
B3: the Km in series [7] stood at 3.5 µM.

B4: 2-oxoadipate dehydrogenase (E1a) (Homo sapiens; Q305H) (protein)
chain: GYQTERGVYGYRPRKPESREPQGALERPPVDHGLARLVTVYCEHGHKAAKINPLFTGQALLENVPEIQALVQTLQGPFHTAGLLNMGKEEASLEEVLVYLNQIYCGQISIETSQLQSQDEKDWFAKRFEELQKETFTTEERKHLSKLMLESQEFDHFLATKFSTVKRYGGEGAESMMGFFHELLKMSAYSGITDVIIGMPHRGRLNLLTGLLQFPPELMFRKMRGLSEFPENFSATGDVLSHLTSSVDLYFGAHHPLHVTMLPNPSHLEAVNPVAVGKTRGRHQSRQDGDYSPDNSAQPGDRVICLQVHGDASFCGQGIVPETFTLSNLPHFRIGGSVHLIVNNQLGYTTPAERGRSSLYCSDIGKLVGCAIIHVNGDSPEEVVRATRLAFEYQRQFRKDVIIDLLCYRQWGHNELDEPFYTNPIMYKIIRARKSIPDTYAEHLIAGGLMTQEEVSEIKSSYYAKLNDHLNNMAHYRPPALNLQAHWQGLAQPEAQITTWSTGVPLDLLRFVGMKSVEVPRELQMHSHLLKTHVQSRMEKMMDGIKLDWATAEALALGSLLAQGFNVRLSGQDVGRGTFSQRHAIVVCQETDDTYIPLNHMDPNQKGFLEVSNSPLSEEAVLGFEYGMSIESPKLLPLWEAQFGDFFNGAQIIFDTFISGGEAKWLLQSGIVILLPHGYDGAGPDHSSCRIERFLQMCDSAEEGVDGDTVNMFVVHPTTPAQYFHLLRRQMVRNFRKPLIVASPKMLLRLPAAVSTLQEMAPGTTFNPVIGDSSVDPKKVKTLVFCSGKHFYSLVKQRESLGAKKHDFAIIRVEELCPFPLDSLQQEMSKYKHVKDHIWSQEEPQNMGPWSFVSPRFEKQLACKLRLVGRPPLPVPAVGIGTVHLHQHEDILAKTFA
notes: as for B3
As to B4, the Km in series [7] stood at 5 µM.
